# Measured values published in article PMC10767040, “Helical reconstruction of VP39 reveals principles for baculovirus nucleocapsid assembly” (Nature Communications, 2024).
# Target: the molecule itself
# Test: cryo-EM structure; helical reconstruction (D14, rise 43.86 Å, twist -7.16°) of AcMNPV nucleocapsids purified from Sf9 cells, on graphene-coated grids; local reconstruction of four adjacent VP39 dimers
protein,measurement,value
"Autographa californica multiple nucleopolyhedrovirus (AcMNPV) major capsid protein VP39 (natural protein, VP39, the 39 kDa major capsid protein of Autographa californica multiple nucleopolyhedrovirus, as assembled in the nucleocapsid; the first 11 residues of the N terminus and the last 27 residues of the C terminus are unresolved in the model; The virus's own VP39 from the bacmid backbone; the decahistidine or FLAG tags were on unrelated human constructs, not on VP39; In the sample VP39 stood as …) MALVPVGMAPRQMRVNRCIFASIVSFDACITYKSPCSPDAYHDDGWFICNNHLIKRFKMSKMVLPIFDEDDNQFKMTIARHLVGNKERGIKRILIPSATNYQDVFNLNSMMQAEQLIFHLIYNNENAVNTICDNLKYTEGFTSNTQRVIHSVYATTKSILDTTNPNTFCSRVSRDELRFFDVTNARALRGGAGDQLFNNYSGFLQNLIRRAVAPEYLQIDTEELRFRNCATCIIDETGLVASVPDGPELYNPIRSSDIMRSQPNRLQIRNVLKFEGDTRELDRTLSGYEEYPTYVPLFLGYQIINSENNFLRNDFIPRANPNATLGGGAVAGPAPGVAGEAGGGIAV",stoichiometry N,2
